From patent US20190322720A1 come the findings set out here.

In test [1] the target is MUC5AC expressed by CFPAC-1 pancreatic tumor cells (human) (UniProt P98088). Description: immunofluorescence, fixed and permeabilized CFPAC-1 cells, 2 µg/ml.
Test [2] has the same target. Kind of test: FACS, CFPAC cells, 2 µg/ml FITC antibody.
The target in test [3] is MUC5AC expressed by LS174T colorectal tumor cells (human) (UniProt P98088). Kind of test: FACS, LS174 cells, 2 µg/ml FITC antibody. On the technique in general: A flow cytometer gives signals particle by particle.
Test [4] addresses MUC5AC (human) (UniProt P98088). Kind of test: FACS, SW480 cells, 2 µg/ml FITC antibody.
Test [5] has the same target. Kind of test: FACS, Colo-205 cells, 2 µg/ml FITC antibody.
Test [6] shares this target. Description: flow cytometry, SW480 colorectal tumor cells.
The target of test [7] is MUC5AC expressed by LS174T colorectal tumor cells (human) (UniProt P98088). Description: flow cytometry, LS174T colorectal tumor cells.
The target in test [8] is MUC5AC expressed by CFPAC-1 pancreatic tumor cells (human) (UniProt P98088). Description: flow cytometry, CFPAC-1 pancreatic tumor cells.
For test [9], the target named is MUC5AC (human) (UniProt P98088). Kind of test: flow cytometry, Colo-205 colorectal tumor cells.
Test [10] deals with MUC5AC expressed by CFPAC-1 pancreatic tumor cells (human) (UniProt P98088). Kind of test: rosetting assay, antibody-coupled beads on CFPAC-1 cells.

Sequence of MUC5AC (human) (P98088 other isoform, or with tags, fused parts or gaps limits assumed): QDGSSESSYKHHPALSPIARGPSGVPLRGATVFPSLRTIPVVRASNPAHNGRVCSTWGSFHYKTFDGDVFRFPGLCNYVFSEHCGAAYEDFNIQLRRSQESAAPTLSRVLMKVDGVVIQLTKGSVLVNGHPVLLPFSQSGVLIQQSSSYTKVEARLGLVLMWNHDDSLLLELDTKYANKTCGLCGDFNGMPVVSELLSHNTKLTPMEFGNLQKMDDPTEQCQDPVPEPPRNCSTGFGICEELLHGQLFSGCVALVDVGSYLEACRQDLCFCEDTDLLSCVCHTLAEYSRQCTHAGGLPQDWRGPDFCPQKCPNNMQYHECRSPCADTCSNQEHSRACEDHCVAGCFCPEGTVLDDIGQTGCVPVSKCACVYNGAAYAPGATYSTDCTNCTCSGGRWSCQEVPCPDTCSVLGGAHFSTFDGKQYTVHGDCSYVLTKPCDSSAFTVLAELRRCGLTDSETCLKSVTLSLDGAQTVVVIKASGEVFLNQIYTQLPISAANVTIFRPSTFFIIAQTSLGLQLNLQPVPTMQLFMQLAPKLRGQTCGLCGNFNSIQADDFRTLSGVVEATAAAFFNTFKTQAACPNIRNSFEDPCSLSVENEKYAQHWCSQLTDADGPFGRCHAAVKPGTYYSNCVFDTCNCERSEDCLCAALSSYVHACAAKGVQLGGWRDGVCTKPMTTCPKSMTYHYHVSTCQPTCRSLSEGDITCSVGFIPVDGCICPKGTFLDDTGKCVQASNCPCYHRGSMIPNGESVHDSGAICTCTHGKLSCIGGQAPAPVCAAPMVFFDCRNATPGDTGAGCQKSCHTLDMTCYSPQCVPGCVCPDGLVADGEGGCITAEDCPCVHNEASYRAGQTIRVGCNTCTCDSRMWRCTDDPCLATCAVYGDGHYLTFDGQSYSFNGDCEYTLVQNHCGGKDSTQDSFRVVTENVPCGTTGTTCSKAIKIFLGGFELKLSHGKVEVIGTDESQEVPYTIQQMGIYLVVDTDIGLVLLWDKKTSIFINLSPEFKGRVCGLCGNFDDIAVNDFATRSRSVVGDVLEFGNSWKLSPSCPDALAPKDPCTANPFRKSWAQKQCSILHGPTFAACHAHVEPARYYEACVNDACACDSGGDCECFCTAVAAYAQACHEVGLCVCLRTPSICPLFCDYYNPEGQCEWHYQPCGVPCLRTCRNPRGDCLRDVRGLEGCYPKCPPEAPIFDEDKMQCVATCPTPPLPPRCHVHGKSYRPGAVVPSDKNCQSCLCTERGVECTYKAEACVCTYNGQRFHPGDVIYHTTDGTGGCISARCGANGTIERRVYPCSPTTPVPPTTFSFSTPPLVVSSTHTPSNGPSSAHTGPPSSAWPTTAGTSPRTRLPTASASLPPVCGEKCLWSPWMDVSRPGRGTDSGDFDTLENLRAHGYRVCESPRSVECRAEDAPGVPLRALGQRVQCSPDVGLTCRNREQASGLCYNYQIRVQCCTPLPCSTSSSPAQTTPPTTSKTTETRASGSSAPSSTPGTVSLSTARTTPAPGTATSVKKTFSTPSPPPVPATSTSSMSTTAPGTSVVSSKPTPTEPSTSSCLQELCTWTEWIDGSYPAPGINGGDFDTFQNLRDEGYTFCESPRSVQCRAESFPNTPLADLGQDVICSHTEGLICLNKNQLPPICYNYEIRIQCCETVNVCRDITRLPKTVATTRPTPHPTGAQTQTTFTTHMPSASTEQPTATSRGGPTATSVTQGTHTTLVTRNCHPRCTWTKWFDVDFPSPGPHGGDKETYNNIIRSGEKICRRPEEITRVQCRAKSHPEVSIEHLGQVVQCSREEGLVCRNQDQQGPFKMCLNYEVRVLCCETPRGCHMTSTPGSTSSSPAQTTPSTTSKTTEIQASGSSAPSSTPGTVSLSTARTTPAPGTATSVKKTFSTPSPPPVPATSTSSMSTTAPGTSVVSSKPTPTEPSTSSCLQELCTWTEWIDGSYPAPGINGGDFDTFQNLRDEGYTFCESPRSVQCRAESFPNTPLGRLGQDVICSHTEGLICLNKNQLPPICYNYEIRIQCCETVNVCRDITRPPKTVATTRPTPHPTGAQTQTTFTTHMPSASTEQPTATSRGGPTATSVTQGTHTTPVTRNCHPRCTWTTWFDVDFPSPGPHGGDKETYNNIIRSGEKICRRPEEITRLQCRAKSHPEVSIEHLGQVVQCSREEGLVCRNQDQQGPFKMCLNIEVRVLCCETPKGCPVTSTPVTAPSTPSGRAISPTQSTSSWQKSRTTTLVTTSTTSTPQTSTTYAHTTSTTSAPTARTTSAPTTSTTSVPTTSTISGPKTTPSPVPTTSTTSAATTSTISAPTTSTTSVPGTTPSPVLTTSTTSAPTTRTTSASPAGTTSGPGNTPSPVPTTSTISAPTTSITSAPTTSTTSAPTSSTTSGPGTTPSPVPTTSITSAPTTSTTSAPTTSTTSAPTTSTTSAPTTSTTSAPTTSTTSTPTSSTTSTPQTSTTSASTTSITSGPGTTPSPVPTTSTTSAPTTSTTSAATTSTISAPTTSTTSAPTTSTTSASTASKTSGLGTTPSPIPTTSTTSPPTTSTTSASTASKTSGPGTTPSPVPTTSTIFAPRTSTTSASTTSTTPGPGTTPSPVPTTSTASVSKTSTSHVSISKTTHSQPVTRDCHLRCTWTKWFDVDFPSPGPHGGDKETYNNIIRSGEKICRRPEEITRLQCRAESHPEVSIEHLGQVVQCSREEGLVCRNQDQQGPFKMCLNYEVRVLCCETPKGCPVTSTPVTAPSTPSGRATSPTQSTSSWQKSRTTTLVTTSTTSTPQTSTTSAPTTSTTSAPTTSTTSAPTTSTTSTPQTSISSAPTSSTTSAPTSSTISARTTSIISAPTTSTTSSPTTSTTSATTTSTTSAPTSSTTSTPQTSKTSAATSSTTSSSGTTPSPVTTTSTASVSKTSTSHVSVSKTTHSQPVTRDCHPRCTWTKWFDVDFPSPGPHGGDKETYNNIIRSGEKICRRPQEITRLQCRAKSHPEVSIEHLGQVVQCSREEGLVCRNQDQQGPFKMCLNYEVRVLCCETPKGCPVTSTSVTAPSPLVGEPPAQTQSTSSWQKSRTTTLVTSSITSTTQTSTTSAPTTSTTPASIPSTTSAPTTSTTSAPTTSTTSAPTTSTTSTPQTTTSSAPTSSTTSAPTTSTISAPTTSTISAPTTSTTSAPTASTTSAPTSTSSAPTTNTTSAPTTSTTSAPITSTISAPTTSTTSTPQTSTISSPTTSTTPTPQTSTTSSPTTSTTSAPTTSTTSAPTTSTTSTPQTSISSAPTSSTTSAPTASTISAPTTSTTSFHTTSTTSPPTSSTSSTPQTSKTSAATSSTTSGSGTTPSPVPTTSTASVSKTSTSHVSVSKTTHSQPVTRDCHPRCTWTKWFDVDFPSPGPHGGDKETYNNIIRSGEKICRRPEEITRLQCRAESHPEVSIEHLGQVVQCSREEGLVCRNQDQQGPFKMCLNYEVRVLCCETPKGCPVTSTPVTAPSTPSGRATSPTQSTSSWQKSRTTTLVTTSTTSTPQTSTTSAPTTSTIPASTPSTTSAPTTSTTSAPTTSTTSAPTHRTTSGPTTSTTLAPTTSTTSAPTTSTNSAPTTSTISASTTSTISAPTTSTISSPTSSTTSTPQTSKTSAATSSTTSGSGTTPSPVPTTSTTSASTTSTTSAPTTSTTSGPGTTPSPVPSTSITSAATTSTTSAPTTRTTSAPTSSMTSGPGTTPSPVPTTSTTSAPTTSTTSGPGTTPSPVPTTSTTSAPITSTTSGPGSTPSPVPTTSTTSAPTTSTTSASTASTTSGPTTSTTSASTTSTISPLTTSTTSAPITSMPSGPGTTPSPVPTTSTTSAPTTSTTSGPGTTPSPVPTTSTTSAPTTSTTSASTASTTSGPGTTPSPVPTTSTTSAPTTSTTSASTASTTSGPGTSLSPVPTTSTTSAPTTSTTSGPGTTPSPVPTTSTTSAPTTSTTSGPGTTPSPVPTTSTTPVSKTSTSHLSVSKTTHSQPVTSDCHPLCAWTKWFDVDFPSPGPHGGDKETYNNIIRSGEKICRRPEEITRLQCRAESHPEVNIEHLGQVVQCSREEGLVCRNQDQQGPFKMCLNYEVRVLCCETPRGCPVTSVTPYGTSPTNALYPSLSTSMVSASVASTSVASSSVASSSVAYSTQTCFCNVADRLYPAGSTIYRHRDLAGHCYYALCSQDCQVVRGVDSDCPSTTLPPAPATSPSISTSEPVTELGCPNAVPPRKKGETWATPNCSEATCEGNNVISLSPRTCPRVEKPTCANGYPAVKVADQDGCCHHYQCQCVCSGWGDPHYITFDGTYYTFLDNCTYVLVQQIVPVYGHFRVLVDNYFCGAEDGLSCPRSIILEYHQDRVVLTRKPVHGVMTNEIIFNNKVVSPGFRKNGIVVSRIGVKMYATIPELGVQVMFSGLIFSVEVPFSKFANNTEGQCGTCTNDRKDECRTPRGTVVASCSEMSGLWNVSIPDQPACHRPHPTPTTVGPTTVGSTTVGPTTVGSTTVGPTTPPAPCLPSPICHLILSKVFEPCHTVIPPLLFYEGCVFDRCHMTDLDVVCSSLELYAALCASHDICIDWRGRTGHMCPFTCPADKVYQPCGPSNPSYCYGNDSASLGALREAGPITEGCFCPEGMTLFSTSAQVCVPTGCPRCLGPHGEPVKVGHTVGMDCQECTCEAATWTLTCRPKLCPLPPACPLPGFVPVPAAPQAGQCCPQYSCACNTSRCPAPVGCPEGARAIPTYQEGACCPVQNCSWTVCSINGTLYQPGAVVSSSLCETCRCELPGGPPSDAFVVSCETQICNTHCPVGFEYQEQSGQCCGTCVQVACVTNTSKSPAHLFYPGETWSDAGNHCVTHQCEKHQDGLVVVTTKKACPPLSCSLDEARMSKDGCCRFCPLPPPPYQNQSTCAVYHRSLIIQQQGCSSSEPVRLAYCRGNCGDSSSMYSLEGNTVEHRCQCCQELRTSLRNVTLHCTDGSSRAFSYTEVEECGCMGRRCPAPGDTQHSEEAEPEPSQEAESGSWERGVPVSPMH
Sequence of MUC5AC expressed by LS174T colorectal tumor cells (human) (P98088 other isoform, or with tags, fused parts or gaps limits assumed, change not shown): as the sequence (P98088 other isoform, or with tags, fused parts or gaps limits assumed) above
Sequence of MUC5AC expressed by CFPAC-1 pancreatic tumor cells (human) (P98088 other isoform, or with tags, fused parts or gaps limits assumed): as above

In [1], 1-13M1 (Abcam Inc.) (antibody) had a % of cells stained of 100%.
In the case of 2-11M1 (Abcam Inc.) (antibody), the % of cells stained in test [1] is under 5%.
Take Isotype control antibody: the Percent positive was determined as 1.79% in test [2], 3.85% in test [3], 3.38% in test [4] and 2.33% in [5]. Also, the % Cells Stained turned out to be 3.38% in test [6], 3.85% in test [7], 1.79% in test [8] and 2.33% in test [9]. Besides, the mfi was found to be 56 mfi in [6], 35 mfi in test [7], 25 mfi in [8] and 34 mfi in test [9].
For human IgG (antibody), the Rosetted cells (>8 beads) in test [10] was determined as 0%.
